Experimental findings from PMC3912200, “Structural and Functional Characterization of Cargo-Binding Sites on the μ4-Subunit of Adaptor Protein Complex 4” (PLoS ONE, 2014) are described below.

Assay [1] relates to cytosolic tail of APP. The assay can be described thus: Yeast two-hybrid (Y2H) analysis of μ4 with the APP tail. Format: binding. The following applies: growth on -His plates, 30°C; for effect of mutation on interaction of the APP tail with μ4 (Y2H): mutations at μ2-binding site; for effect of mutation on binding to the APP YKFFE signal (Y2H): mutations at μ4-binding site. From the text:
The cloning of the tail of APP (residues 649–695), full-length human μ4, and all the other yeast two-hybrid (Y2H) constructs, and the cloning of the C-terminal domain of μ4 for expression in E. coli was described previously. To generate a construct for mammalian expression, full-length human μ4 was obtained by PCR amplification and cloned into the EcoRI and SalI sites of pEGFP-N1 (BD BiosciencesClontech, Mountain View, CA) including a stop-codon before the GFP coding sequence. The cloning of APP-GFP carrying the double mutation F615P/D664A was described previously. Single amino acid substitutions were introduced using the QuikChange mutagenesis kit (Stratagene, La Jolla, CA). Y2H assays were performed as previously described. A set of pCI-neo (Promega) constructs encoding hemagglutinin (HA)-epitope tagged wild-type or mutants of human μ4 was a generous gift of J. Bonifacino and R. Mattera (Cell Biology and Metabolism Program, NICHD, NIH). The nucleotide sequences of all recombinant constructs were confirmed by dideoxy sequencing.
Figure 1 Yeast two-hybrid analysis of the interaction of μ4 with the cytosolic tail of APP. (A) Superposition of the surface and ribbon representations of human wild-type μ4 C-terminal domain (pdb entry 3L81). The insets show an enlargement of the μ4-binding site and the putative μ2-binding site with residues chosen for the yeast two-hybrid (Y2H) analysis. The APP peptide (TYKFFEQ; stick model) bound to the μ4-binding site is in yellow, and the EGFR peptide (FYRALM; stick model; pdb entry 1BW8) superposed to the putative μ2-binding site is in magenta. (B) Sequence alignment of the C-terminal domain of the μ subunits of known crystal structure depicting critical residues at the corresponding μ2- and μ4-binding sites. Disordered loops are in yellow letters, and arrows and cylinders represent β-strands and α-helices, respectively. M.m., Mus musculus; R.n., Rattus norvegicus; H.s., Homo sapiens. (C) and (D) Yeast were co-transformed with plasmids encoding Gal4bd fused to the cytosolic tail of the amyloid precursor protein (APP) indicated on the left, and Gal4ad fused to wild-type or mutant μ4 constructs indicated on top of each panel. (C) Y2H analysis of μ4 with mutations on the YKFFE binding site (μ4-binding site). (D) Y2H analysis of μ4 with mutations on a putative YXXØ binding site (μ2-binding site). Mouse p53 fused to Gal4bd and SV40 large T antigen (T Ag) fused to Gal4ad were used as controls. Co-transformed cells were spotted onto His-deficient (-His) or His-containing (+His) plates and incubated at 30°C. Growth is indicative of interactions. Some mutations on either of the two sites affect the interaction of μ4 with the cytosolic tail of APP.

Assay [2] concerns APP-GFP. Nature of the assay: Distribution of APP-GFP in MDA-MB-231 cells. Format: cell-based, human. The following applies: for APP redistribution (figure title): APP-GFP F615P/D664A, EEA1, TGN46 staining; for change in distribution of APP: HA-epitope-tagged constructs, 24 h after transfection, EEA1/TGN46 immunofluorescence. The method, then:
H4 human neuroglioma or MDA-MB-231 human mammary gland epithelial cells obtained from the American Type Culture Collection (Manassas, VA) were maintained in DMEM (H4) or DMEM/F12 (MDA-MB-231) supplemented with 10% (v/v) fetal bovine serum (FBS), 100 U/ml penicillin and 100 µg/ml streptomycin (Life Technologies). Transfections were carried out using Lipofectamine 2000 (Life Technologies) for 1 h at 37°C in the absence of FBS, and cells were analyzed 16, 24 or up to 36-h after transfection, for which we observed no notorious signs of loss in cell viability. SDS-PAGE, immunoblotting, and immunoprecipitation were performed as described. H4 cells after 16 h of transfection were washed twice with cold phosphate buffered saline supplemented with 0.1 mM CaCl2 and 1 mM MgCl2 (PBS-Ca/Mg), and incubated at 4°C for 1 h in lysis buffer (50 mM Tris-HCl pH 7.4, 150 mM NaCl, 1 mM EDTA, 1% (v/v) Triton X-100, and a cocktail of protease inhibitors). Soluble extracts were subjected to overnight immunoprecipitation at 4°C either with rabbit anti-HA-epitope antibody (kindly provided by R. Hegde, MRC Laboratory of Molecular Biology, Cambridge, UK) or with mouse antibody to the ε subunit of AP-4 (BD Biosciences) immobilized onto protein A- or a 1∶1 mix of protein A- and protein-G Sepharose beads (GE Healthcare), respectively. Soluble extracts and immunoprecipitates were processed by SDS-PAGE and blotted with horseradish peroxidase-conjugated mouse anti-HA antibody (Macs Miltenyi Biotec) or with mouse antibody to the ε subunit of AP-4.
Indirect immunofluorescence staining of fixed, permeabilized cells was performed as previously described, using sheep polyclonal antibody anti-TGN46 (Serotec), and mouse monoclonal antibody anti-EEA1 (BD Biosciences) or rabbit polyclonal antibody anti-EEA1 (Santa Cruz Biotechnology), followed by the secondary antibodies Alexa-647–conjugated donkey anti-mouse IgG, Alexa-594–conjugated donkey anti-rabbit IgG, or Alexa-594– or -647–conjugated donkey anti-sheep IgG (Life Technologies). Images were acquired either with an Olympus FluoView FV1000 scanning unit fitted on an inverted Olympus IX81 microscope and equipped with a PlanApo 60x oil immersion objective (NA 1.40; Olympus, Melville, NY), using similar settings as described previously, or with an AxioObserver.D1 microscope equipped with a PlanApo 63x oil immersion objective (NA 1.4), and an AxioCam MRm digital camera (Carl Zeiss). Quantitative analysis of colocalization was performed as we previously described, with minor modifications. Briefly, 12-bit images were acquired under identical settings avoiding signal saturation, and corrected for noise, cross-talk, and background signals on each set of images. The signals of TGN46 or EEA1 in each set of images were used in Image J (version 1.44o; Wayne Rasband, NIH, http://imagej.nih.gov) to define masks regarded as Golgi/TGN or early endosomes localization, respectively. The percentage of localization in each compartment was calculated for each cell (n = 10–15) subtracting either the Golgi/TGN or the early endosomes mask from the total integrated pixel intensity of APP-GFP, and the remainder of the signal was considered as in the ‘rest of the cell’.
We next examined the functional role of both the μ2- and the μ4-binding site of μ4 on the intracellular trafficking of APP. We have shown that the YKFFE-μ4 interaction is functional in vivo because its disruption by depletion of μ4 by RNAi produces a shift in the distribution of APP from endosomes to the TGN [18]. To evaluate now the function of each binding site for tyrosine-based signals, we tested a dominant-negative effect by overexpressing untagged or HA-epitope-tagged full-length wild-type μ4 or the variants untagged or HA-epitope-tagged μ4-D190A, μ4-D190S, μ4-F255A or μ4-R283D in H4 neuroglioma cells, as well as in MDA-MB-231 mammary gland epithelial cells, and examined by immunofluorescence the distribution of APP-GFP. […]

Positions count from the first letter of the chain named. Numbers in names are those of the source.

B1: W439S: μ4 mutant, μ2-binding site, Y2H construct (protein)
chain: MISQFFILSSKGDPLIYKDFRGDSGGRDVAELFYRKLTGLPGDESPVVMHHHGRHFIHIRHSGLYLVVTTSENVSPFSLLELLSRLATLLGDYCGSLGEGTISRNVALVYELLDEVLDYGYVQTTSTEMLRNFIQTEAVVSKPFSLFDLSSVGLFGAETQQSKVAPSSAASRPVLSSRSDQSQKNEVFLDVVERLSVLIASNGSLLKVDVQGEIRLKSFLPSGSEMRIGLTEEFCVGKSELRGYGPGIRVDEVSFHSSVNLDEFESHRILRLQPPQGELTVMRYQLSDDLPSPLPFRLFPSVQWDRGSGRLQVYLKLRCDLLSKSQALNVRLHLPLPRGVVSLSQELSSPEQKAELAEGALRWDLPRVQGGSQLSGLFQMDVPGPPGPPSHGLSTSASPLGLGPASLSFELPRHTCSGLQVRFLRLAFRPCGNANPHKSVRHLSHSDAYVIRI
modifications: left off: Gal4 activation domain, end not stated, kept
In the case of B1, in assay [1], the “effect of mutation on interaction of the APP tail with μ4 (Y2H)” value was “little or no effect”.

B2: µ4-R283D-HA: HA-epitope-tagged full-length μ4-R283D, overexpressed (protein)
chain: B1 chain with R283D, S439W
modifications: left off: HA, end not stated, kept
Regarding B2, the “APP redistribution (figure title)” value in assay [2] (24 h) was “APP redistributes from endosomes to the TGN”. Also, the “change in distribution of APP” value in assay [2] was “strong redistribution of APP from endosomes to the TGN”.

B3: µ4-HA: HA-epitope-tagged full-length wild-type μ4, overexpressed (protein)
chain: B1 chain with S439W
modifications: left off: HA, end not stated, kept
On to B3, for which the “change in distribution of APP” value in assay [2] is on record as “no apparent change in the distribution of APP”.

B4: L261K: μ4 mutant, μ4-binding site, Y2H construct (protein)
chain: B1 chain with L261K, S439W
modifications: left off: Gal4 activation domain, end not stated, kept
On to B4, for which the “effect of mutation on binding to the APP YKFFE signal (Y2H)” value (“effect of mutation on binding” for short) in assay [1] was “completely abolished”.

B5: E265R: μ4 mutant, μ4-binding site, Y2H construct (protein)
chain: B1 chain with E265R, S439W
modifications: left off: Gal4 activation domain, end not stated, kept
Take B5: the “effect of mutation on binding” value in assay [1] was “completely abolished”.

B6: F264A: μ4 mutant, μ4-binding site, Y2H construct (protein)
chain: B1 chain with F264A, S439W
modifications: left off: Gal4 activation domain, end not stated, kept
In the case of B6, in assay [1], the “effect of mutation on binding” value is “drastically reduced”.

B7: R441A: μ4 mutant, μ2-binding site, Y2H construct (protein)
chain: B1 chain with S439W, R441A
modifications: left off: Gal4 activation domain, end not stated, kept
As to B7, the “effect of mutation on interaction of the APP tail with μ4 (Y2H)” value in assay [1] is listed as “little or no effect”.

B8: µ4-F255A-HA: HA-epitope-tagged full-length μ4-F255A, overexpressed (protein)
chain: B1 chain with F255A, S439W
modifications: left off: HA, end not stated, kept
With B8, the “APP redistribution (figure title)” value in assay [2] (24 h) is on record as “APP redistributes from endosomes to the TGN”. Besides, the “change in distribution of APP” value in assay [2] is “strong redistribution of APP from endosomes to the TGN”.

B9: µ4-D190A-HA: HA-epitope-tagged full-length μ4-D190A, overexpressed (protein)
chain: B1 chain with D190A, S439W
modifications: left off: HA, end not stated, kept
On to B9, for which the “change in distribution of APP” value in assay [2] is “minor redistribution of APP to the TGN”.

B10: μ4-D190S: D190S mutant of μ4 (C-terminal domain in vitro; full-length, HA-tagged or untagged, in cells) (protein)
chain: QQSKVAPSSAASRPVLSSRSDQSQKNEVFLSVVERLSVLIASNGSLLKVDVQGEIRLKSFLPSGSEMRIGLTEEFCVGKSELRGYGPGIRVDEVSFHSSVNLDEFESHRILRLQPPQGELTVMRYQLSDDLPSPLPFRLFPSVQWDRGSGRLQVYLKLRCDLLSKSQALNVRLHLPLPRGVVSLSQELSSPEQKAELAEGALRWDLPRVQGGSQLSGLFQMDVPGPPGPPSHGLSTSASPLGLGPASLSFELPRHTCSGLQVRFLRLAFRPCGNANPHKWVRHLSHSDAYVIRI
modifications: left off: GST, N-terminal, cleaved
For B10, the “effect on localization of APP-GFP in endosomes” value in assay [2] (either HA-epitope-tagged or untagged, 24 h) is listed as “little or no effect”.

B11: μ4-R283D: μ4 with the single mutation R283D at the μ4-binding site (C-terminal domain; untagged full-length in b45) (protein)
chain: B10 chain with S31D, R124D
modifications: left off: GST, N-terminal, cleaved
Turning to B11, the “APP redistribution (figure title)” value in assay [2] (24 h) was “APP redistributes from endosomes to the TGN”.
